Measured values reported in patent US20250206841A1 (ADEPT THERAPEUTICS, published 2025).

T1: human Trop-2-His protein (human, UniProt P09758 27-274)
T1 construct: extracellular domain; Assay paragraphs say only 'Trop-2-His'; also called hTrop-2; Kactus Cat #TRP-HM121; not shown: His tag
T1 sequence (looked up): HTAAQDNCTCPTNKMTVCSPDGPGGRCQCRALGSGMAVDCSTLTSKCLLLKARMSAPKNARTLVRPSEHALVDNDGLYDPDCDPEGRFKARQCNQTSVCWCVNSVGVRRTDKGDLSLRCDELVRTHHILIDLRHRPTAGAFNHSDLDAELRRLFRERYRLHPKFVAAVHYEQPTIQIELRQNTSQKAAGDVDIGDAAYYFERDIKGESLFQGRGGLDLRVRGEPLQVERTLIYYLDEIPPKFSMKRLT


The binders below were run against T1, human Trop-2-His protein (assay: BLI (Gator Prime), LEM supernatant Ab on HFC probe).
In short: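 Antibodies from LEM transfection supernatants were diluted 1:1 in K buffer and captured on HFC probes. Association and dissociation of human or cynomolgus Trop-2-His were then followed by BLI, with blank reference subtraction and affinity from kinetic fitting. Sacituzumab govitecan at 1 μg/ml served as positive control.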

Row | Binder | Kd | koff | kon
1 | 9D7 (antibody, V domains shown, Rabbit-derived clone; LEM construct: VH + rabbit IgG CH1 + human IgG1 CH2-CH3) VH: QSLEESGGDLVQPGASLTLTCKASGFDLNNYSILWVRQAPGKGLEWIGCIYISGGSTYYANWAKGRFAISKTSSTTVTLQMTSLTAADTATYFCARDDGTASYYLNLWGPGTLVTVSS VL: YDMTQTPASVSEPVGGTVTIKCQASEDIYKLLAWYQQKPGQPPKLLIYAASDLESGVPSRFKGRGSGTDYTLTISDLECADAATYYCQQAYTIGNIDNSFGGGTEVVVK | 0.113 nM | 3.9e-05 s⁻¹ | 342000 M⁻¹ s⁻¹
2 | 1D10 (antibody, V domains shown, Rabbit-derived clone; LEM construct: VH + rabbit IgG CH1 + human IgG1 CH2-CH3) VH: QEQLKESGGGLVQPGGSLTLSCKASGFDFNYYGVSWVRQAPGKGLEWIGYIYPAYHNTYYATWVNGRFTISSHNAQNTLYLQLNTLTAADTATYFCARDAGSTDYNLNLWGPGTLVTVSS VL: DVVMTQTPASVEVAVGGTVTIKCQASEDIESYLAWYQQKPGQPPRLLIYEASKLASGVSSRFSGGGYGTDFTLTISGVECADAATYYCHQALTIGNVDNPFGGGGEVVVK | 0.53 nM | 0.00027 s⁻¹ | 518000 M⁻¹ s⁻¹
3 | 74F11/15F5 (antibody, human IgG1, V domains shown, LEM construct: VH + rabbit IgG CH1 + human IgG1 CH2-CH3) VH: QEQLKESGGGLVQPGGSLKLSCKASGFDFNNYGMSWVRQAPGKGLEWIAYIYPAFHNTYYANWVNGRFTISSDNAQNTVDLQLNSLTAADTATYFCARDAGSTDYNFNLWGPGTLVTVSS VL: DVVMTQTPASVEAAVGGTVTIKCQASEDIERYLAWYQQKPGQPPKLLIYEASKLPSGVSSRFSGSGYGTEFTLTISGVECADAATYYCQQALTIGYVDNPFGGGSEVVVK | 0.323 nM | 0.00017 s⁻¹ | 526000 M⁻¹ s⁻¹
4 | 72F12 (antibody, V domains shown, Rabbit-derived clone; LEM construct: VH + rabbit IgG CH1 + human IgG1 CH2-CH3) VH: QEQLKESGGGLVQPGGSLKLSCKASGFDFNNYGVSWVRQAPGKGLEWIAYIYPAFHNTYYATWVNGRFTISSHNAQNTLYLQLNSLTAADTATYFCARDAGSVDYNFNLWGPGTLVTVSS VL: DVVMTQTPASVEVAVGGTVTIKCQASKNIDSNLAWYQQKPGQPPKQLIYAASTLASGVSSRFSGSGYGAEFTLTISGVECADAATYYCQQALTIGNVDNPFGGGSEVVVK | 0.574 nM | 0.00038 s⁻¹ | 666000 M⁻¹ s⁻¹
5 | 63H3 (antibody, V domains shown, Rabbit-derived clone; LEM construct: VH + rabbit IgG CH1 + human IgG1 CH2-CH3) VH: QEQLKESGGGLVQPGGSLKLSCKASGFDFNSYGVSWVRQAPGKGLEWIAYIYPAFHNAYYANWVNGRFTISSDNAQNTVDLQLNSLTAADTATYFCARDAGGTDYNYNLWGPGTLVTVSS VL: DVVMTQTPASVEVAVGGTVTLKCQASEDIESYSAWYQQKPGQPPNLLIYEASKLASGVSSRFSGSGYGTEFTLTISGVECADAATYYCQQALTIGNVDNPFGGGSEVVVR | 0.22 nM | 0.00016 s⁻¹ | 704000 M⁻¹ s⁻¹
6 | 66A1 (antibody, V domains shown, Rabbit-derived clone; LEM construct: VH + rabbit IgG CH1 + human IgG1 CH2-CH3) VH: QEQLKESGGGLVQPGGSLKLSCKASGFDFNNYGVSWVRQAPGKGLEWIAYIYPAFHNTYYASWVNGRFTISSHNAQNTLYLQLNSLTAADTATYFCARDAGGTDYAYNLWGPGTLVTVSS VL: DVVMTQTPASVEAAVGGTVSINCQASEDIESYLAWYQQKPGQPPKLLIYKASTLASGVSSRFKGSGSGKQFTLTISGVECADAATYYCQQVLTIGNVDNPFGGGSEVVVK | 0.426 nM | 0.00028 s⁻¹ | 656000 M⁻¹ s⁻¹
7 | 9F7 (antibody, V domains shown, Rabbit-derived clone; LEM construct: VH + rabbit IgG CH1 + human IgG1 CH2-CH3) VH: QEQLKESGGGLVQPGGSLTLSCKASGFDFNNYGVSWVRQAPGKGLEWIGYIYPAYHNTYYATWVNGRFTISSHNAQNTLYLQLNTLTAADTATYFCARDTGSTDYNFNLWGPGTLVTVSS VL: DVVMTQTPASVEVAVGGTVTIKCQASEDIESYLAWYQQKPGQPPKLLIYEASKLASGVSSRFSGGGYGTEFTLTISGVECADAATYYCQQALTVGNVDNPFGGGSEVVVK | 0.11 nM | 5.8e-05 s⁻¹ | 530000 M⁻¹ s⁻¹

The remaining binders from weak to strong by Kd, led by results:

Row | Kd | koff | kon | Binder
8 | 0.656 nM | 0.00046 s⁻¹ | 706000 M⁻¹ s⁻¹ | 65D5 (antibody, V domains shown, Rabbit-derived clone; LEM construct: VH + rabbit IgG CH1 + human IgG1 CH2-CH3) VH: QEQLKESGGGLVQPGGSLKLSCKASGFDFNAYGVSWVRQAPGKGLEWIAYIYPAFHNTYYATWVNGRFTISSHNAQNTLYLQLNTLTAADTATYFCARDAGTTDYNFNLWGPGTLVTVSS VL: DIVMTQTPASVSEPVGGTVTIKCQASQSISSYLAWYQQKPGQPPKLLIYEATKLTSGVSSRFSGSGYGTEFTLTISGVECADAATYYCQQALTVGDVDNPFGGGSEVVVK
9 | 0.623 nM | 0.00038 s⁻¹ | 607000 M⁻¹ s⁻¹ | 62E3 (antibody, V domains shown, Rabbit-derived clone; LEM construct: VH + rabbit IgG CH1 + human IgG1 CH2-CH3) VH: QEQLKESGGGLVQPGGSLKLSCKASGFDFNEYGVSWVRQAPGKGLEWIAYIYPAFHNTYYATWVNGRFTISSHNAQNTLYLQLNTLTAADTATYFCARDAGTTDYNFNLWGPGTLVTVSS VL: DVVMTQTASPVSAAVGGTVTIKCQASEDIESYLAWYQQKPGQPPKLLIYEASKLASGVSSRFSGSGYGTEFTLTISGVECADAATYYCQQALTIGNVDNPFGGGSEVVVK
10 | 0.28 nM | 0.0001 s⁻¹ | 358000 M⁻¹ s⁻¹ | 5D4 (antibody, V domains shown, Rabbit-derived clone; LEM construct: VH + rabbit IgG CH1 + human IgG1 CH2-CH3) VH: QQLEESGGGLVKPEGSLTLTCKGSGFDFSGTYWMWWVRQAPGKGLEWIACIYVGSGSSTYYASWAKGRFTISSTSSTAVTLQATSLTAADTATYFCARGATNNVFMNYFNLWGPGTLVTVSS VL: FEMTQTPSSVSEPVGGTVTIKCQASEDISSNLGWYQQKPGQPPKLLIYGASTLASGVPSRFKGSGSGTEFTLTISDLECADAATYYCQTSYYIDDGVNGFGGGTEVVVK
11 | 0.142 nM | 5.3e-05 s⁻¹ | 372000 M⁻¹ s⁻¹ | 10A9 (antibody, V domains shown, Rabbit-derived clone; LEM construct: VH + rabbit IgG CH1 + human IgG1 CH2-CH3) VH: QSLEESGGDLVQPGASLTLTCKASGFDLNNYAMLWVRQAPGKGLEWIGCIYISGGTTYFASWATGRFAISKTSSTTVTLQMTSLTAADTATYFCARDDGTTSYYLNLWGPGTLVTVSS VL: YDMTQTPASVSAAVGGTVTIKCQASEDIYSLLAWYQQKPGQPPKLLIYGASNLESGVPSRFKGSGSGTEYTLTISDLECDDAATYYCQQAYTIGNIDNAFGGGTEVVVK
